Assay results from paper PMC9485262, “Structural characterization of a soil viral auxiliary metabolic gene product – a functional chitosanase” (Nature Communications, 2022).

Legend:
[1] = target: V-Csn (Viral Chitosanase), soil viral GH75 chitosanase AMG product (soil virus (predicted Proteobacteria phage; forest soil metagenome)); assay: SEC; size exclusion chromatography of purified V-Csn in solution; conditions of this observation are not given (gel filtration in the purification used a Superdex HiLoad 26/60 column)
V-Csn = target: T1, V-Csn (uncultured phage, UniProt Z9RE59BL32); assay: X-ray crystal structure of co-crystal, […] A; format: binding; settings: co-crystallised with about 5 mM chitohexaose, 0.2 M ammonium sulfate, 0.1 M sodium acetate pH 4.6, 30% MMePEG2000; active-site cleft; three of six GlcN residues modelled
T1 construct: model residues 1-224 plus linker GHS; dimer in solution

For “V-Csn (Viral Chitosanase), soil viral GH75 chitosanase AMG product (enzyme)”, the stoichiometry N [1] was 2.

In the case of N[C@H]1[C@H](O[C@H]2[C@H](O)[C@@H](N)[C@H](O[C@H]3[C@H](O)[C@@H](N)[C@H](O[C@H]4[C@H](O)[C@@H](N)[C@H](O[C@H]5[C@H](O)[C@@H](N)[C@H](O[C@H]6[C@H](O)[C@@H](N)C(O)O[C@@H]6CO)O[C@@H]5CO)O[C@@H]4CO)O[C@@H]3CO)O[C@@H]2CO)O[C@H](CO)[C@@H](O)[C@@H]1O (some centres unmarked) [chitohexaose], the “X-ray crystal structure of co-crystal, 1.30 A” value (V-Csn) is reported as “gave a complex with the E157Q mutant only”.
